The values below come from paper PMC9352680, “A comprehensive thermodynamic model for RNA binding by the Saccharomyces cerevisiae Pumilio protein PUF4”.

For orientation: Kd means a measure of binding affinity in units of concentration. Lower therefore signals a tighter complex.

T1: PUF4 RNA-binding domain (Saccharomyces cerevisiae, UniProt P25339 537-888)
T1 sequence: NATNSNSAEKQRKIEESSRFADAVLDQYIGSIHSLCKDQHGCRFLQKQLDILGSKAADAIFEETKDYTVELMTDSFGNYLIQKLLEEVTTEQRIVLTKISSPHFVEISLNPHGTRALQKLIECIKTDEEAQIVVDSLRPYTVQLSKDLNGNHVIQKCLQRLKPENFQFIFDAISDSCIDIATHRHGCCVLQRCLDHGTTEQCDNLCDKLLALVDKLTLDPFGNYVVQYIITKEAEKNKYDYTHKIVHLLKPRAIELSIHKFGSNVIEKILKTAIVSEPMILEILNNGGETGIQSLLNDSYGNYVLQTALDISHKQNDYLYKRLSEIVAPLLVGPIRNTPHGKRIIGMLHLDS

The data set has as its target T1, PUF4 RNA-binding domain. The data set is described as follows: Mg; RNA-MaP; 20 mM Na-HEPES pH 7.4, 30 mM KOAc, 0.75 mM MgCl2, 0.1% Tween-20, 5% glycerol, 0.1 mg/mL BSA, 2 mM DTT; 25 C; 0.0125-409.6 nM protein. The note with it: tags: N-His6-TEV cleaved; C-SNAP kept, Cy3B-labelled; label: tethered on chip by stalled RNA polymerase.
UCUCUUCCUAUAUAUUAUCUCUCUU (ssRNA) [Id_ii_S1_P4E.3_K4.2_C4.2_[T-1C]_H4.2_A4.1_F4.1_T4.2_[G10T]_[T11C]] came in with a Kd of 0.0185 µM. Molecule UCUCUUCAUAUAUAUUAUCUCUCUU (ssRNA) [Id_ii_S1_P4E.3_K4.2_C4.2_[T-1A]_H4.2_A4.1_F4.1_T4.2_[G10T]_[T11C]] had a Kd of 0.025 µM. Molecule UCUCUUCCUAUAUAUUAAAUCUCUU (ssRNA) [Id_ii_S1_P4E.3_K4.2_C4.2_[T-1C]_H4.2_A4.1_F4.1_T4.2_[G10A]_[T11A]] came in with a Kd of 0.0304 µM. With UCUCUUUGUUUUUUAUCUCUU (ssRNA) [Ib_S1_P4E.1_K4.1_C4.1_H4.1_[A4T]_A4.1_[A6T]_F4.1_T4.1], binding was characterised by a dissociation constant (Kd) of 0.1 µM. With UCUCUUCCUAUAUAUUAAUUCUCUU (ssRNA) [Id_ii_S1_P4E.3_K4.2_C4.2_[T-1C]_H4.2_A4.1_F4.1_T4.2_[G10A]] the figure was 0.0271 µM. Molecule UCUCUUCGUAUAUAUUAGCUCUCUU (ssRNA) [Id_ii_S1_P4E.3_K4.2_C4.2_[T-1G]_H4.2_A4.1_F4.1_T4.2_[T11C]] yielded a Kd of 0.00929 µM. For UCUCUUCGUAUAUAUUAUUUCUCUU (ssRNA) [Id_ii_S1_P4E.3_K4.2_C4.2_[T-1G]_H4.2_A4.1_F4.1_T4.2_[G10T]], the Kd was 0.0219 µM. UCUCUUCAUAUAUAUUACUUCUCUU (ssRNA) [Id_ii_S1_P4E.3_K4.2_C4.2_[T-1A]_H4.2_A4.1_F4.1_T4.2_[G10C]] yielded a Kd of 0.021 µM. Take UCUCUUCAUAUAUAUUACGUCUCUU (ssRNA) [Id_ii_S1_P4E.3_K4.2_C4.2_[T-1A]_H4.2_A4.1_F4.1_T4.2_[G10C]_[T11G]]: the affinity, expressed as Kd, was 0.0348 µM. On to UCUCUUCGUAUAUAUUAACUCUCUU (ssRNA) [Id_ii_S1_P4E.3_K4.2_C4.2_[T-1G]_H4.2_A4.1_F4.1_T4.2_[G10A]_[T11C]], for which the Kd is 0.0299 µM. The molecule UCUCUUUGUGUAGUAUCUCUU (ssRNA) [Ib_S1_P4E.1_K4.1_C4.1_H4.1_[A4G]_A4.1_[T7G]_F4.1_T4.1] gave a Kd of 0.0183 µM. On to UCUCUUCCUAUAUAUUAUAUCUCUU (ssRNA) [Id_ii_S1_P4E.3_K4.2_C4.2_[T-1C]_H4.2_A4.1_F4.1_T4.2_[G10T]_[T11A]], for which the Kd is 0.0145 µM. In the case of UCUCUUCCUAUAUAUUAUGUCUCUU (ssRNA) [Id_ii_S1_P4E.3_K4.2_C4.2_[T-1C]_H4.2_A4.1_F4.1_T4.2_[G10T]_[T11G]], the Kd stood at 0.0211 µM. For UCUCUUCCUAUAUAUUACCUCUCUU (ssRNA) [Id_ii_S1_P4E.3_K4.2_C4.2_[T-1C]_H4.2_A4.1_F4.1_T4.2_[G10C]_[T11C]], the Kd is 0.028 µM. For UCUCUUCGUAUAUAUUAGUUCUCUU (ssRNA) [Id_ii_S1_P4E.3_K4.2_C4.2_[T-1G]_H4.2_A4.1_F4.1_T4.2], the Kd stood at 0.00831 µM. In turn, UCUCUUCGUAUAUAUUAAAUCUCUU (ssRNA) [Id_ii_S1_P4E.3_K4.2_C4.2_[T-1G]_H4.2_A4.1_F4.1_T4.2_[G10A]_[T11A]] registered a dissociation constant Kd of 0.0516 µM.

As for UCUCUUAUUAUAUAUUAGCUCUCUU (ssRNA) [Id_ii_S1_P4E.3_K4.2_C4.2_[C-2A]_H4.2_A4.1_F4.1_T4.2_[T11C]], binding was put at a Kd of 0.0157 µM. With UCUCUUCCUAUAUAUUAACUCUCUU (ssRNA) [Id_ii_S1_P4E.3_K4.2_C4.2_[T-1C]_H4.2_A4.1_F4.1_T4.2_[G10A]_[T11C]], binding was put at a Kd of 0.0293 µM. Take UCUCUUCCUAUAUAUUACUUCUCUU (ssRNA) [Id_ii_S1_P4E.3_K4.2_C4.2_[T-1C]_H4.2_A4.1_F4.1_T4.2_[G10C]]: the Kd worked out at 0.0201 µM. In turn, UCUCUUCAUAUAUAUUACAUCUCUU (ssRNA) [Id_ii_S1_P4E.3_K4.2_C4.2_[T-1A]_H4.2_A4.1_F4.1_T4.2_[G10C]_[T11A]] had a Kd of 0.0278 µM. In turn, UCUCUUCCUAUAUAUUACGUCUCUU (ssRNA) [Id_ii_S1_P4E.3_K4.2_C4.2_[T-1C]_H4.2_A4.1_F4.1_T4.2_[G10C]_[T11G]] showed a Kd of 0.0328 µM. For the molecule UCUCUUCGUAUAUAUUAAGUCUCUU (ssRNA) [Id_ii_S1_P4E.3_K4.2_C4.2_[T-1G]_H4.2_A4.1_F4.1_T4.2_[G10A]_[T11G]], the Kd came to 0.101 µM. Consider UCUCUUCCUAUAUAUUAUUUCUCUU (ssRNA) [Id_ii_S1_P4E.3_K4.2_C4.2_[T-1C]_H4.2_A4.1_F4.1_T4.2_[G10T]], for which the Kd was found to be 0.0269 µM. Take UCUCUUAUUAUAUAUUAAUUCUCUU (ssRNA) [Id_ii_S1_P4E.3_K4.2_C4.2_[C-2A]_H4.2_A4.1_F4.1_T4.2_[G10A]]: binding was put at a Kd of 0.0256 µM. For the molecule UCUCUUCCUAUAUAUUAAGUCUCUU (ssRNA) [Id_ii_S1_P4E.3_K4.2_C4.2_[T-1C]_H4.2_A4.1_F4.1_T4.2_[G10A]_[T11G]], the affinity, expressed as Kd, was 0.0876 µM.
